Measured values taken from patent US20180371095A1 (published 2018).

Molecular target: T1, HEK293 cells transfected with recombinant human VSIG3-eGFP (human, UniProt Q5DX21 23-431)
T1 construct: whole, on cells; not shown: eGFP
T1 sequence (looked up): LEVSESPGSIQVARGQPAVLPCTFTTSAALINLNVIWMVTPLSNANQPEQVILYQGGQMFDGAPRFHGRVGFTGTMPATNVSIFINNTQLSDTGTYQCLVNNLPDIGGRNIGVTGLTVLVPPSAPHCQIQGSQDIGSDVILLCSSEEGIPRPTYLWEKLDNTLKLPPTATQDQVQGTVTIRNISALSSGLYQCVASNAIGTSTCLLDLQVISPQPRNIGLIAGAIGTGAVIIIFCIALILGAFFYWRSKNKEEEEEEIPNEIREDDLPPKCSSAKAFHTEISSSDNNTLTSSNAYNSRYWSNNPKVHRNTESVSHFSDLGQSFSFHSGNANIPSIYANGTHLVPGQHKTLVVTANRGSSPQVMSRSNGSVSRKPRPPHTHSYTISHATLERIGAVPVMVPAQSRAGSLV
Test: flow cytometry, anti-Fc APC detection

binding result: no binding
B1: recombinant human Siglec-7 (rhSiglec-7)/Fc protein (Fc fusion, UniProt Q9Y286 19-357, looked up)
chain: QKSNRKDYSLTMQSSVTVQEGMCVHVRCSFSYPVDSQTDSDPVHGYWFRAGNDISWKAPVATNNPAWAVQEETRDRFHLLGDPQTKNCTLSIRDARMSDAGRYFFRMEKGNIKWNYKYDQLSVNVTALTHRPNILIPGTLESGCFQNLTCSVPWACEQGTPPMISWMGTSVSPLHPSTTRSSVLTLIPQPQHHGTSLTCQVTLPGAGVTTNRTIQLNVSYPPQNLTVTVFQGEGTASTALGNSSSLSVLEGQSLRLVCAVDSNPPARLSWTWRSLTLYPSQPSNPLVLELQVHLGDEGEFTCRAQNSLGSQHVSLNLSLQQEYTGKMRPVSGVLLGAVG
notes: also called Fc-tagged Siglec7 protein; human Siglec-7 Fc protein; not shown: human IgG Fc region
